Source: the DeepSol protein solubility set

Test: soluble on expression in E. coli; label from the status in PepcDB or PDB records

| Sequence | soluble on expression in E. coli |
| --- | --- |
| MGSDKIHHHHHHMSIQSLLDYISVTPDIRQQGKVKHKLSAILFLTVCAVIAGADEWQEIEDFGHERLEWLKKYGDFDNGIPVDDTIARVVSNIDSLAFEKMFIEWMQECHEITDGEIIAIDGKTIRGSFDKGKRKGAIHMVSAFSNENGVVLGQVKTEAKSNEITAIPELLNLLYLKKNLITIDAMGCQKDIASKIKDKKADYLLAVKGNQGKLHHAFEEKFPVNVFSNYKGDSFSTQEISHGRKETRLHIVSNVTPELL | not soluble |
| MPVVYKRILLKLSGEALMGDGHYGIDRAVVEHIVVEVAGVLQLGVEVAIVVGGGNIFRGMKSAGDGMDRVTADYMGMLATTMNALALHDAMRRNGVVSRVQSALRIDQVVEPYVRGKALRYLDERKVVVFAAGTGNPFFTTDTAAALRGMEMNANIVLKATKVDGIYTSDPLKNKDAQRFQSLTFDEAISKNLQVMDATALTLCRDQKLPINVFSIFKTGALKRVIMGEDEGTSVFV | not soluble |
| MKLMQIRKPLLKSSLLDQNLTEEEVNMKFVQDLLNWVDEMQVQLDRTEWGSDLPSVESHLENHKNVHRAIEEFESSLKEAKISEIQMTAPLKLSYTDKLHRLESQYAKLLNTSRNQERHLDTLHNFVTRATNELIWLNEKEESEVAYDWSERNSSVARKKSYHAELMRELEQKEESIKAVQEIAEQLLLENHPARLTIEAYRAAMQTQWSWILQLCQCVEQHIQE | soluble |
| MSITHLMRQQVEELFKRFLEKTGLSEEATVYAVFIPKEEEVDEESVDVFEQRVNPKDAESVENFVSRLTKVALENDVKELKLYALVLDRDGETLIIAREENPEADEVIKELIERMKEEV | not soluble |
| MNKDIETQRFKQQKKWQKYYKFRGQFFLMKKYSKRMIFDRRIKMTTKEKIEFIKQVTPHSDSEVEKIIKGMSDTSINRWYEIEKYRIDQELEEAVLTIYC | not soluble |
| MKYQLTALEARVIGCLLEKQVTTPEQYPLSVNGVVTACNQKTNREPVMNLSESEVQEQLDNLVKRHYLRTVSGFGNRVTKYEQRFCNSEFGDLKLSAAEVALITTLLLRGAQTPGELRSRAARMYEFSDMAEVESTLEQLANREDGPFVVRLAREPGKRENRYMHLFSGEVEDQPAVTDMSNAVDGDLQARVEALEIEVAELKQRLDSLLAHLGD | soluble |
| ALSGGFIKGFAHLGVMQALLEHDIKPDIISGVSAGALAGVFYADGNEPHQVIEYFSGHKFQDLTKLVIPKKGLFDLCEFIDFLHTNLKAKNLEELQIPLIITATDLDHGRMVHFHRGSIAERVAASCCMPVMFAPVNIDGTNYVDGGLMMNLPVSTLRRICDKVVAVNVSPIMAQDYKMNIVSIAMRSFHFMFRANTFPEREKCDLLIEPYNLYGYSNTELEKAEEIFEQGYKIAND | not soluble |
| MSSTQEASVTDLPVKRPREAEEDNNGGAMETENGGGEIKEPSCMSSIIPGWFSEISPMWPGEAHSLKVEKILFQGKSDYQDVIVFQSATYGKVLVLDGVIQLTERDECAYQEMITHLPLCSISNPKKVLVIGGGDGGVLREVARHSSVEQIDICEIDKMVVDVAKQYFPNVAVGYEDPRVNLIIGDGVAFLKNAAEGTYDAVIVDSSDPIGPAKELFEKPFFESVNRALRPGGVVCTQAESLWLHMDIIEDIVSNCRDIFKGSVNYAWTSVPTYPSGVIGFMLCSSEGPQVDFKKPVSLIDTDESSIKSHCPLKYYNAEIHSAAFCLPSFAKKVIDSKAN | soluble |
| MDPTRGLCALSTHDLAKFHSLPPARKAAGKRAHLRCYSKLLSLKSWEQLASFLSLPPGPTFTDFRLFFEVTLGRRIADCVVVALQPYPRCYIVEFKTAMSNTANPQSVTRKAQRLEGTAQLCDCANFLRTSCPPVLGSQGLEVLAALVFKNQRSLRTLQVEFPALGQKTLPTSTTGLLNLLSRWQDGALRARLDRPRPTAQGHRPRTHVGPKPSQLTARVPRSARAGRAGGRKGQVGAVGQVCPGAQK | not soluble |
| MKLKTNIRHLHGIIRVPGDKSISHRSIIFGSLAEGETKVYDILRGEDVLSTMQVFRDLGVEIEDKDGVITVQGVGMAGLKAPQNALNMGNSGTSIRLISGVLAGADFEVEMFGDDSLSKRPMDRVTLPLKKMGVSISGQTERDLPPLRLKGTKNLRPIHYELPIASAQVKSALMFAALQAKGESVIIEKEYTRNHTEDMLQQFGGHLSVDGKKITVQGPQKLTGQKVVVPGDISSAAFWLVAGLIAPNSRLVLQNVGINETRTGIIDVIRAMGGKLEITEIDPVAKSATLIVESSDLKGTEICGALIPRLIDELPIIALLATQAQGVTVIKDAEELKVKETDRIQVVADALNSMGADITPTADGMIIKGKSALHGARVNTFGDHRIGMMTAIAALLVADGEVELDRAEAINTSYPSFFDDLESLIHG | soluble |
| VLTELVDLPGGSFRMGSTRFYPEEAPIHTVTVRAFAVERHPVTNAQFAEFVSATGYVTVAEQPLDPGLYPGVDAADLCPGAMVFCPTAGPVDLRDWRQWWDWVPGACWRHPFGRDSDIADRAGHPVVQVAYPDAVAYARWAGRRLPTEAEWEYAARGGTTATYAWGDQEKPGGMLMANTWQGRFPYRNDGALGWVGTSPVGRFPANGFGLLDMIGNVWEWTTTEFYPHHRIDPPSTACCAPVKLATAADPTISQTLKGGSHLCAPEYCHRYRPAARSPQSQDTATTHIGFRCVADPVSG | soluble |
| MGSDKIHHHHHHMYLVRNMEHVEPNIDGFKYYCSRFKNHFSFDERLTPWSCPHCKIGRLIAKEENFFCQETLILHSERKPSLQYSGFFICNCCDNKTFSTGTGKNNYYCGGDDETGDFTEMYVNEYTPQFFSPSIMLFNPPASTPQSVRDSLKRAFSICWCDIPASCNVLRVTVEILLKERWPEVPIVINGQNLNKKLNELKKIEASQPKLLEILDYFLAIKWLGNNGSHDAELEERDLAVAFKIMDKALILLYSRDDNSVSEWVRMINAAEGRPIKS | not soluble |
| TDIAGLTIEHVTGDYLNGFRIIPDNIKYKGVIVTFGGSDGTPAYEQAVQLAQEGYQVLALFFFGMPNQHPTLAEVPVEYYQEIESYISQHFSQPDKITVIGTSKGAEYALLLASLYDSIDNVVLYAPSSHIYAGLDFRNYSSSWSQNGKALPYLDVRSENSLKLFYNFLIKTPISYYHTYKQALDKDKNSEDKRIKVEKTKANILIFAGENDRMWPSAESARLIEKYQPNHTQVTIYKEAGHLFAGDGI | not soluble |
| MTFEKIEEAYQLLLENCQLIENDLKTHIYDAIVEQNSFYLGAEGASPQVAQNSDKLKALCLTKEEWRKAYQFLFIKAAQTEQLQANHQFTPDAIGFILLYLLEQLSDKDSLEVLEIGSGTGNLAQTLLNNTSKSLDYVGIELDDLLIDLSASIAEIMDSSAHFIQEDAVRPQLLKESDIVISDLPVGYYPNDDIAKRYKVASSDKHTYAHHLLMEQSLKYLKKDGFAIFLAPVNLLTSPQSQLLKQWLKDYAQVVTLITLPDSIFGHPSNAKSIIVLQKQTDHPMETFVYPIRDLKLAENIHDFMENFKKWKLSNVN | not soluble |
| MGSDKIHHHHHHMQLIPLAERMRPVLLQDVYGQQHLIGEGMVFRRFVEEGKIPSMILWGPPGVGKTTLAQLLAKTVGLPFYTLSAISSGVKEVREVIANAQTDGKAVLFIDEIHRFSKSQQDALLGAVEKGTIQLIGATTENPSFEVIPALLSRCQVYVLQPLSEEELVELMRSALKKDAYLKTRSVEIKEHDSLLRLSGGDARKLLNLLELVIDASGKDPIVITDAYVQKIAQKKVASYDKNGEMHYDIISAFIKSVRGSDPNAAVYWLARMIEGGEDVEFIARRLLILASEDVGNANPTALVMATTAFDAVRFIGWPESRIILSQVTTYLASSPKSNASYMAINEAQQLVRSHGDLPVPIHLRNAPTKLMKDLDYGKEYKYAHSYEANFVEQEYMPDKLAGKKIFDPGNNAREQELRTFLQKRWKEKYKY | not soluble |
| MGSDKIHHHHHHMKIGFLSRWGATCGVGMHAEILAREFIRMGHEVVVFAPTEESASKEVKYYKRTEAQDPEFVKREIYTEVDNVTEEGWVKEEEILKENLDLLIIETFWRVPVKPLTRLIEKLKIPVISVFHEANIFKAREVVKLPCDKIVVFDRRFYDEILEFYEIPREKVEVISYPVMKPYDAEPERPVSEDKFLFFSFGRQPVEEYCDFLNALKKLRKRFDNVHYWIIRSDGRVDYEAEWITQWQKRPTVEKLYSYLKGSNVHLLPKGNTPNVVVSSTLYQIIASETPIVIRDSRFVETIETDVYGFGPIVKYRNIHDLVHKLELLMLDRELVEDIKKEVRVFVEKYGGDKIAQEFLDLAKTITK | not soluble |
| MVPELKQISRVEAMRLGPGWSHSCHAMLYAANPGQLFGRIPMRFSVLMQMRFDGLLGFPGGFVDRRFWSLEDGLNRVLGLGLGCLRLTEADYLSSHLTEGPHRVVAHLYARQLTLEQLHAVEISAVHSRDHGLEVLGLVRVPLYTQKDRVGGFPNFLSNAFVSTAKCQLLFALKVLNMMPEEKLVEALAAATEKQKKALEKLLPASSAHHHHHH | soluble |
| MSLYQSIVFIARNVVNSITRILHDHPTNSSLITQTYFITPNHSGKNISFHLFHDFKYCSADTRHYSQLIIFPVKENSRPTQVSRPLGGRPHESVFLPKFTRTQNSYCLTRLDRMGFPPPRKASTIMHFFQDDRTVMCSPKDGIPVSSFHIMICFLERRKGN | soluble |
| MSLRGLRGRSFTIGVLLIDIRNPFLPEVIAGVNEVLGPSHYQAMIGVSDARVQLETSLIESMIDYKMDGLILVAPRLPSEILATFAVQIPIVAVGYHDASATAFDTVNAE | soluble |
| MGSSHHHHHHSSGLVPRGSHMASMTGGQQMGRGSMTTHLQAKATLHNGVEMPWFGLGVFQVEEGSELVNAVKTAIVHGYRSIDTAAIYGNEAGVGEGIREGIEEAGISREDLFITSKVWNADLGYEETLAAFETSLSKLGLDYLDLYLIHWPVEGKYKEAWRALETLYKEGRIKAIGVSNFQIHHLEDLMTAAEIKPMINQVEFHPRLTQKELIRYCQNQGIQMEAWSPLMQGQLLDHPVLADIAQTYNKSVAQIILRWDLQHGIITIPKSTKEHRIKENASVFDFELTQDDMNRIDALNENLRVGPDPDNFDF | soluble |
| QVQLQESGGGLVQPGGSLRLSCAASGFTFSNSAMSWVRQAPGKGLEWVSSISGSGGNTYSADSVKGRFTISRDNAKNSLYLQMNSLRAEDTAVYYCARDWYGMDVWGQGTTVTVSS | soluble |
| MNQTAAFSEVEMSIVVPKESDIKDVSQLTSVQAPTKVDKNNIEILMSALKKDKKVDVKVDDVASYQEAYDNLKSGKSKAMVLSGSYASLLESVDSNFASNLKTIYTYKIKKKNSNSANPVDSKVFNIYISGIDTYGPISTVSRSDVNIIMTVNMNTHKILLTTTPRDAYVKIPGGGADQYDKLTHAGIYGVETSEQTLEDLYGIKIDYYARINFTSFLKLIDQLGGVTVHNDQAFTQGKFDFPVGDIQMNSEQALGFVRERYNLDGGDNDRGKNQEKVISAILNKLASLKSVSNFTSIVNNLQDSVQTNMSLDTINALANTQLDSGSKFTVTSQAVTGTGSTGQLISYAMPNSSLYMMKLDNSSVASASQAIKNLMEEKLEHHHHHH | soluble |
| SSATPIVQFQGESNCLKCFRYRLNDKHRHLFDLISSTWHWASPKAPHKHAIVTVTYHSEEQRQQFLNVVKIPPTIRHKLGFMSMHLL | soluble |
| MKGEEKMPSFDIVSEVDLQEARNGVDNAVREVESRFDFRGVEATIELNDANKTIKVLSESDFQVNQLLDILRAKLLKRGIEGASLDVPDEFVHSGKTWYVEAKLKQGIESAVQKKIVKLIKDSKLKVQAQIQGEEIRVTGKSRDDLQSVMALVRGGDLGQPFQFKNFRD | not soluble |
| MGSDKIHHHHHHMGDLSFIAINDKCEVVLDNEIYKSNIQGIEEKYIAISLPVANGTYAIMHKGDMTEIWCYHDNQVYSFTSTVIERKKEDAIKLILISKPSYENIKRVQRRKNFRVDLIESIKYKVLNKNVVKTEIEKLKEASEEFSDGYMIDLSGGGLKIRIKQKPNVGDSIFVNLPIGDQKLFLISTCVRAIREVNGEYLCGLEFDDDIDERIREHIINYTFNIMRKHMKKR | not soluble |
